Target: T1, human CD123 (interleukin-3 receptor alpha subunit) (human, UniProt P26951 19-378)
T1 construct: Native CD123 on patients' cells; also called IL-3Rα; Interleukine-3 Receptor alpha
Test: average CD123 receptor saturation on patients' cells after intravenous IMGN632, Schedule A, Cohorts 1-6 (method not described)

T1 sequence (P26951 19-378 limits assumed): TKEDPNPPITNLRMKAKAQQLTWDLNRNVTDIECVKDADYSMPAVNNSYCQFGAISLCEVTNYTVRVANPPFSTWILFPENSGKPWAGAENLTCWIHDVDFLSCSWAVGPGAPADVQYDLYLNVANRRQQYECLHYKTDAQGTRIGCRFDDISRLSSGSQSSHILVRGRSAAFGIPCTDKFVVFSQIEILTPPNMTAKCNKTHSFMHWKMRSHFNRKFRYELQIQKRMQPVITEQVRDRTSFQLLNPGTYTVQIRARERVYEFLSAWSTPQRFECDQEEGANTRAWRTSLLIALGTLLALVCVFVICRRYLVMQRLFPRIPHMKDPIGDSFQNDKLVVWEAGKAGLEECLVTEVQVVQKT

binding result: binds
B1: IMGN632 (immunoconjugate of the anti-CD123 huCD123-6Gv4.7 antibody linked to DGN549-C) (antibody, V domains shown)
VH: QVQLVQSGAEVKKPGASVKVSCKASGYIFTSSIMHWVRQAPGQGLEWIGYIKPYNDGTKYNEKFKGRATLTSDRSTSTAYMELSSLRSEDTAVYYCAREGGNDYYDTMDYWGQGTLVTVSS
VL: DIQMTQSPSSLSASVGDRVTITCRASQDINSYLSWFQQKPGKAPKTLIYRVNRLVDGVPSRFSGSGSGNDYTLTISSLQPEDFATYYCLQYDAFPYTFGQGTKVEIKR
modifications: DGN549-C cytotoxic agent (peptide linker) covalently linked through a cysteine residue (huCD123-6Gv7-C442 heavy chain); average of 1.5 to 2.1 DGN549-C per antibody, mostly the sulfonated form
notes: also called anti-CD123 immunoconjugate; G4723A-DGN549-C
